Data on 1 molecule can be found in article PMC7941734 (Cell reports, 2021).

In this assay the target is His6-tagged ASF1A S166E (recombinant) (human, UniProt Q9Y294 1-204, S166E). Nature of the assay: pull-down.
Chain of His6-tagged ASF1A S166E (recombinant) (Q9Y294 whole entry S166E): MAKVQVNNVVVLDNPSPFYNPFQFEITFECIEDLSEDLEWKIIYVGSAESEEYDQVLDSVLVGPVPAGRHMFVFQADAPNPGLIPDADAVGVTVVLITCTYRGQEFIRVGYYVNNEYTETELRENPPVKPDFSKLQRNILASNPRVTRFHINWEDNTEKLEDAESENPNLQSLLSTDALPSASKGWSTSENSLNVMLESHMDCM

B1: GST-tagged FHA domain of MDC1 (aa 1–158) (domain or fragment, human, UniProt Q14676 1-158, looked up)
chain: MEDTQAIDWDVEEEEETEQSSESLRCNVEPVGRLHIFSGAHGPEKDFPLHLGKNVVGRMPDCSVALPFPSISKQHAEIEILAWDKAPILRDCGSLNGTQILRPPKVLSPGVSHRLRDQELILFADLLCQYHRLDVSLPFVSRGPLTVEETPRVQGETQ
Take B1: the binding result is given as “binds”.
